The results in this text go back to the supplement of paper PMC12042874.

± gives the uncertainty stated by the source.

This series is described as follows: amyloid nucleation score (Sup35N fusion, yeast selection) (log enrichment); library NNK1; higher = more nucleation; inactive = no reads after selection. The procedure, abridged:
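Nucleation score is defined as the DiMSum log enrichment of output over input reads, with centring on the mode score of non-aggregating sequences. A minimum of 100 input reads was required for each sequence. Reads came from Illumina sequencing of plasmid inserts from psi-negative yeast expressing Sup35N fused to peptides of 20 random codons, induced with 100 μM copper sulfate for 24 hours and grown 7 days at 30°C on medium lacking adenine and uracil.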
On to LAFNTIYWVIRIESFWLSAA, for which the amyloid nucleation score was -0.189 ± 0.36. For DSSRTLFCRAHWGSRFNGRG, the amyloid nucleation score was -1.69 ± 2.4.

TERDLYDILTKTMGIGVSRW: the amyloid nucleation score was -0.544 ± 0.57. On to LISLRVHYAASLFFFPVDDF, for which the amyloid nucleation score came out at 0.998 ± 0.93. Turning to GHWPQRCIMVVECYQRQAHK, the amyloid nucleation score was found to be 0.115 ± 0.65. On to SMEIYLDFMNVCSKMVNASG, for which the amyloid nucleation score was -0.093 ± 0.3.

Regarding LDLAFSFLHSTNIWTTFGLC, the amyloid nucleation score was -1.6 ± 1.4. MDAFTNAWVMGWCMLHCARG displayed an amyloid nucleation score of 0.524 ± 0.7. On to CVCLSVARLDYADIFVWTFM, for which the amyloid nucleation score amounted to 2.28 ± 0.13.

For ALSSWLLFGSTCQDSDCFKD, the amyloid nucleation score is 1.16 ± 0.76. In turn, GLNLNRFWRLGATFILYLQT returned an amyloid nucleation score of 1.19 ± 0.54. Turning to RCFMFSTGEALTNEDRSLRR, the amyloid nucleation score was determined as 1.12 ± 0.6. As for ETAEMIAVPDRAHF, the amyloid nucleation score is 1.05 ± 0.57. RCSFFSYCVNDAS gave an amyloid nucleation score of 3.55 ± 0.12. Consider YFFVLEFIVCIVMTITSLSC, for which the amyloid nucleation score was -0.988 ± 0.48.

For the substance LEKQMNASQFAPPRLLLRKL, the amyloid nucleation score amounted to 0.498 ± 0.87. The same measure for VATPISLGFPPWTSNVHAHT: “inactive”; for LTMLYMLLCDNSLMRDILPD: 0.951 ± 0.88; for FISPLSISLHQWVLSSKYRE: 7.394 ± 0.044. The substance ISDEIGIAIENKDSLRKGFR showed an amyloid nucleation score of 0.002 ± 0.84.

ESSGRGCVPSEKIDEHGPVT: the amyloid nucleation score is -0.319 ± 1. As to TGWNGNLGSVVAE, the amyloid nucleation score is -0.375 ± 0.5. Consider CRTTHQALRWIHMDYYYSWV, for which the amyloid nucleation score is -0.327 ± 0.31. The substance NLDKNGYRTCNLKISYHMSR returned an amyloid nucleation score of 1.28 ± 0.32. The same measure for IRVGGIWRGCCGVDLCYLTI: -0.627 ± 0.61; for TAGRVITSCWQVLILLVNCG: -0.605 ± 0.54; for RSRIYCGFNRPTCEGFSRLS: 2.63 ± 0.11. The result for PANSSMSSNY reads 0.091 ± 1.5; that for TLVVGMRLDNHDHA, 1.14 ± 0.21. Consider LQSFVLLGDRIYRRFCVLMN, for which the amyloid nucleation score worked out at 0.048 ± 1.2. Substance YMISNMVKVVFSSTDRNVGN came in with an amyloid nucleation score of 5.935 ± 0.051. Turning to VARYSDRSNTEAYRVRFLGI, the amyloid nucleation score worked out at 1.28 ± 0.23.

For the substance DDQKIRRY, the amyloid nucleation score was 0.602 ± 0.34.

Substance VDLIPLEGVRGAWLQASQRG displayed an amyloid nucleation score of 0.664 ± 0.49. In the case of NKMGFFNTISGKRS, the amyloid nucleation score was -0.556 ± 0.59. Take CPRYLATNIFHAGECVNHSR: the amyloid nucleation score is -1.08 ± 2.7.

VCSGTFGYHRRYEWDWVLKG showed an amyloid nucleation score of 0.215 ± 1.2. The result for TALRLTSSSIKIATQVDLKF reads 2.06 ± 0.16; that for TRLSRERINRDWEREGCLTP, 0.798 ± 0.81. In turn, HPLRLYRKSISINVVLSSCL displayed an amyloid nucleation score of 0.733 ± 0.88. YMPRSQIGSTSHVNWREMAE: the amyloid nucleation score was -0.311 ± 0.33. The same measure for TCWVGYYVCW: -0.336 ± 0.53; for WGRMV: 0.248 ± 0.74; for LKCRLLVQTQLSESRGMWTS: 0.316 ± 0.7. RLSGGLADHNIFNFRIT came in with an amyloid nucleation score of 0.805 ± 0.76. In the case of HSSPLGLLWGAPARRRYCRR, the amyloid nucleation score was -0.32 ± 0.87. In the case of NNYLCAEWFVTGVSTPLTTS, the amyloid nucleation score came to 0.735 ± 0.55.

On to ETHVRAPSGGNAGPLRRGSS, for which the amyloid nucleation score is -0.877 ± 0.52. On to VFLHVES, for which the amyloid nucleation score worked out at 1.85 ± 0.59. With FPEFIVFRMRIVYIVSFRTW, the amyloid nucleation score is 1.06 ± 0.47.

With NWVLHIRDCRAKALPLITDW, the amyloid nucleation score is -0.034 ± 0.45. For MSDRKCKKDSRYLWRDLLPE, the amyloid nucleation score turned out to be 0.264 ± 0.46.

As for FKAHRMVLHGYIGSMERG, the amyloid nucleation score was -0.186 ± 1.1. The result for YVQTLSNTECNAIANMHERF reads 0.641 ± 0.42; that for AWRDTDVASSVICG, 0.932 ± 0.97. Consider LSSDADFKNNSLFRESDKYV, for which the amyloid nucleation score was -0.297 ± 0.22. FFILYINSQLIREVILRRAH: the amyloid nucleation score was -0.128 ± 0.23. Turning to LFLGMSNGLFLRMISRGCKW, the amyloid nucleation score was -0.243 ± 0.33. As to IICSLW, the amyloid nucleation score is 0.614 ± 0.34. The substance RGNLESFVLGNIRVTNP displayed an amyloid nucleation score of 1.01 ± 0.18.

Take HALTSDRYWKERPTIPRFRF: the amyloid nucleation score was -0.174 ± 0.36. Substance RVNYDVLVHLMPGLWVRTRL returned an amyloid nucleation score of 0.372 ± 1.4.

Turning to LLIRLLGQ, the amyloid nucleation score result is “inactive”. As for LYAAYCRQGTTHAIR, the amyloid nucleation score is -0.389 ± 0.54. PVTSTIHRHPFFHVTTGDRM: the amyloid nucleation score is -1.32 ± 0.94. As to CFGKSSVWHRYRFYIGNRAI, the amyloid nucleation score is -0.613 ± 0.75. Turning to DFNHYDRSSW, the amyloid nucleation score worked out at 2.45 ± 0.18.

With SFAHHAFIGFILSSWWN, the amyloid nucleation score was -1.06 ± 2.4.

Take VFLMYRLMH: the amyloid nucleation score result was “inactive”. For the substance RYIRLRMFLCLFYLMCLPRR, the amyloid nucleation score is -1.25 ± 0.75.

As to LSRFRLFSYMYVLHKCNMGM, the amyloid nucleation score is -0.777 ± 1.2. SYGNCVRCSLMYKGKHMLNT had an amyloid nucleation score of 0.022 ± 0.52. The same measure for YWIIKVRNRLVPRFFKYKGS: -0.491 ± 0.39; for TASRYLVVRN: 0.875 ± 0.43.

Take KYTYGRHTQLVLDSIHSWLN: the amyloid nucleation score was found to be 0.235 ± 0.75. As for KVNLTSCSY, the amyloid nucleation score was -0.059 ± 0.42. The substance MVGSAVVFVLENLGVTGSWG came in with an amyloid nucleation score of 0.072 ± 0.84. In the case of FRSGFSLKARSVQMCDRF, the amyloid nucleation score came to 1.26 ± 0.42. The same measure for ESAHNWWNPVSSYL: 1.06 ± 0.58. LVTRGFEVRGDHQVIKYFLA: the amyloid nucleation score was -0.6 ± 0.49. The result for IWSGATV reads 0.445 ± 0.41.

As to AVCVEGQLANSGHRGTGNGN, the amyloid nucleation score came to 0.257 ± 0.48. The result for CNCVWRCWV reads 1.14 ± 0.78; that for YDNRSALDWCLGEVMFAST, -0.993 ± 0.35. As for TCRKFKYPL, the amyloid nucleation score was 0.372 ± 0.29. IYNRKTYFMTTSATVVFAVP gave an amyloid nucleation score of 0.696 ± 0.4. The same measure for HDFRFIGSWHLTYGPSVTTT: -0.471 ± 0.49.

In the case of NTQNRSEVNQGVVGQVR, the amyloid nucleation score was -0.378 ± 0.36. The result for QCLRWDPGI reads 1 ± 0.51; that for SMFKGTIWRQHSLS, 0.618 ± 0.85. Substance MILLKCIYY yielded an amyloid nucleation score of 0.179 ± 0.39. The result for LFVGRGIAFVSFGPLALS reads 3.83 ± 0.08; that for PLCSNRIERMLLSVGCGRRR, -0.416 ± 0.44.

In the case of GWCNMGGANVWKMQVTGPAE, the amyloid nucleation score was found to be 0.948 ± 0.58. HHRVCSMKWSNCYELNVMGE: the amyloid nucleation score was -0.429 ± 0.28. SSGFKSAPFSFLRLFLHISR: the amyloid nucleation score was -1.47 ± 2.4. As to KRPSMM, the amyloid nucleation score was -0.18 ± 0.3.

Take NTLYYRSFRAIQLPGGENQN: the amyloid nucleation score is -1.09 ± 1.9. The same measure for TSSCFMESRLK: 0.179 ± 0.59; for AFIFMSTATDDLFFAINL: -0.139 ± 0.35; for RKYKRTVMDMKCYWQGVWSV: 0.136 ± 0.5. With TLNKARSDYFLKRSSE, the amyloid nucleation score was -0.025 ± 1.

LRMFFDSTTILKLYERSWNI yielded an amyloid nucleation score of 0.777 ± 1.2. FRLTGTLALKFVVELTVRR returned an amyloid nucleation score of 2.79 ± 0.26. For LIVVVTLSGEHRFSVMVYRN, the amyloid nucleation score is -0.001 ± 0.64. The result for YAVCRLANSSGSRHVFLCHT reads 0.527 ± 0.31; that for LLFLYSLNLSRHLY, 0.71 ± 1.1. Regarding SCHYDQPDQKLLASQSLL, the amyloid nucleation score was -1.02 ± 0.68. For the substance MRASTFNYSYELKINVVCYT, the amyloid nucleation score is -0.918 ± 0.53. For the substance WCSNVNFDVRVDNIKSFRWF, the amyloid nucleation score came out at 5.864 ± 0.053.

CQLSNTSIACSLYNLHCRSW: the amyloid nucleation score was determined as 4.42 ± 0.13. In the case of LGLYSVCC, the amyloid nucleation score was -0.219 ± 0.3. WNSSYDGRFIAYAMQWSNKE: the amyloid nucleation score was -0.118 ± 0.48. With DSMKMIILVDVGRNHGLGHR, the amyloid nucleation score was determined as 3.32 ± 0.16. Regarding INNGIQ, the amyloid nucleation score was -0.047 ± 0.96. Consider IQAMGGRMSRAV, for which the amyloid nucleation score was -0.073 ± 0.77. For CRATTP, the amyloid nucleation score is 0.282 ± 0.49. The substance SLMDKMPTIVLELVYHAVQI returned an amyloid nucleation score of 0.018 ± 0.49. Turning to NHVYCVWMRMFMIYFNL, the amyloid nucleation score was -0.17 ± 0.54. The same measure for LFPRVMN: 0.338 ± 0.58.

NDSICIVVLS: the amyloid nucleation score was -0.009 ± 0.84. Turning to FDQLEGLRCASSWKLLSSPG, the amyloid nucleation score turned out to be 0.062 ± 0.8. In turn, LNVGVLGGRLLSGALVNSTM returned an amyloid nucleation score of 0.396 ± 0.65. Substance FELTVGIWQHWRT gave an amyloid nucleation score of 0.45 ± 0.5. YVGAMCLTRGKVRRSEERN: the amyloid nucleation score is 0.553 ± 0.54. With SASSMVFNTTSPT, the amyloid nucleation score is -0.404 ± 0.51. Take FKDGLCYCNSGVS: the amyloid nucleation score was -0.452 ± 0.39. The same measure for LPIRASGNHL: 0.495 ± 0.79. As to FFHAIIWRLIYRQFPDFVG, the amyloid nucleation score came to 0.984 ± 0.43.

Regarding RNQVRDSRVISGPNFSSMKK, the amyloid nucleation score was -0.51 ± 0.71. Turning to MFAWLDDLFRY, the amyloid nucleation score was -0.3 ± 0.38. Regarding YPCCKICDYIKS, the amyloid nucleation score is -0.018 ± 0.23.

In the case of GRVVAHLNRRHR, the amyloid nucleation score is 1.38 ± 0.43. Substance VFGAFSESLLYSR yielded an amyloid nucleation score of 0.51 ± 0.35. The substance VFSIIRPGMASSLHGQVQIA gave an amyloid nucleation score of 1.28 ± 0.69. For the substance YCNGNRKVVEVDFDWILGGG, the amyloid nucleation score was -0.33 ± 1.1. Substance YVCFVQSCFYARQGHMSGEA came in with an amyloid nucleation score of 0.165 ± 0.31. Regarding SVRTCFNRYLKQVRVWSYAG, the amyloid nucleation score is -0.165 ± 1.6.

On to NFTTVAVLRFNDNGR, for which the amyloid nucleation score was 4.43 ± 0.066. On to FFLAV, for which the amyloid nucleation score was -0.158 ± 0.64.
